Values of other authors in patent US9408889B2, “Fusion peptide designed to reduce plaque bacteria and yeast in the oral cavity” (RUTGERS, THE STATE UNIVERSITY OF NEW JERSEY, priority 2011, dated 2016).

Test system: Streptococcus mutans
Conditions: full length Lf variant expressed in an insect vector

B1: arginine variant: full length lactoferrin (Lf) variant with arginine at position 29, the more common variant (protein, UniProt P02788 1-710, looked up)
chain: MKLVFLVLLFLGALGLCLAGRRRSVQWCAVSQPEATKCFQWQRNMRKVRGPPVSCIKRDSPIQCIQAIAENRADAVTLDGGFIYEAGLAPYKLRPVAAEVYGTERQPRTHYYAVAVVKKGGSFQLNELQGLKSCHTGLRRTAGWNVPIGTLRPFLNWTGPPEPIEAAVARFFSASCVPGADKGQFPNLCRLCAGTGENKCAFSSQEPYFSYSGAFKCLRDGAGDVAFIRESTVFEDLSDEAERDEYELLCPDNTRKPVDKFKDCHLARVPSHAVVARSVNGKEDAIWNLLRQAQEKFGKDKSPKFQLFGSPSGQKDLLFKDSAIGFSRVPPRIDSGLYLGSGYFTAIQNLRKSEEEVAARRARVVWCAVGEQELRKCNQWSGLSEGSVTCSSASTTEDCIALVLKGEADAMSLDGGYVYTAGKCGLVPVLAENYKSQQSSDPDPNCVDRPVEGYLAVAVVRRSDTSLTWNSVKGKKSCHTAVDRTAGWNIPMGLLFNQTGSCKFDEYFSQSCAPGSDPRSNLCALCIGDEQGENKCVPNSNERYYGYTGAFRCLAENAGDVAFVKDVTVLQNTDGNNNEAWAKDLKLADFALLCLDGKRKPVTEARSCHLAMAPNHAVVSRMDKVERLKQVLLHQQAKFGRNGSDCPDKFCLFQSETKNLLFNDNTECLARLHGKTTYEKYLGPQYVAGITNLKKCSTSPLLEACEFLRK
modifications: full-length
notes: full length lactoferrin (Lf) variant with arginine at position 29, the more common variant
**Q.** With B1 as the molecule, how does the “effect on survival of S. mutans” value read?
**A.** little to no effect
